7 variants from FireProtDB (doi:10.1016/j.bbadis.2004.06.012) can be followed below.

First the molecules themselves.
B1: Aryl-hydrocarbon-interacting protein-like 1, Q9NZN9 (parent)
chain: MDAALLLNVEGVKKTILHGGTGELPNFITGSRVIFHFRTMKCDEERTVIDDSRQVGQPMHIIIGNMFKLEVWEILLTSMRVHEVAEFWCDTIHTGVYPILSRSLRQMAQGKDPTEWHVHTCGLANMFAYHTLGYEDLDELQKEPQPLVFVIELLQVDAPSDYQRETWNLSNHEKMKAVPVLHGEGNRLFKLGRYEEASSKYQEAIICLRNLQTKEKPWEVQWLKLEKMINTLILNYCQCLLKKEEYYEVLEHTSDILRHHPGIVKAYYVRARAHAEVWNEAEAKADLQKVLELEPSMQKAVRRELRLLENRMAEKQEEERLRCRNMLSQGATQPPAEPPTEPPAQSSTEPPAEPPTAPSAELSAGPPAEPATEPPPSPGHSLQH

In the series the parent is B1. The conditions noted are these: Homo sapiens; pH 7.9; Thermal; CD; sodium Phosphate 5 mM; transition: 2; whole UniProt chain shown.

As a reminder, the Tm is the temperature at the midpoint of the melting transition. With MDAALLLNVEGVKKTILHGGTGELPNFITGSRVIFHFRTMKCDEERTVIDDSRQVGQPMHIIIGNMFKLEVWEILLTSMRVHEVAEFWCDTIHTGVYPILSRSLRQMAQGKDPTEWHVHTCGLANMFAYHTLGYEDLDELQKEPQPLVFVIELLQVDAPSDYQRETWNLSNHEKMKAVPVLHGEGNRLFKLGRYEEPSSKYQEAIICLRNLQTKEKPWEVQWLKLEKMINTLILNYCQCLLKKEEYYEVLEHTSDILRHHPGIVKAYYVRARAHAEVWNEAEAKADLQKVLELEPSMQKAVRRELRLLENRMAEKQEEERLRCRNMLSQGATQPPAEPPTEPPAQSSTEPPAEPPTAPSAELSAGPPAEPATEPPPSPGHSLQH [A197P], the Tm was found to be 40.5 °C and the “change of melting temperature, mutant - wild type (higher = more stable)” value (shortened to “change of melting temperature, mutant”) was -3.6 °C.

Regarding MDAALLLNVEGVKKTILHGGTGELPNFITGSRVIFHFRTMKCDEERTVIDDSRQVGQPMHIIIGNMFKLEVWEILLTSMRVHEVAEFWCDTIHTGVYPILSRSLRQMAQGKDPTEWHVHTCGLANMFAYHTLGYEDLDELQKEPQPLVFVIELLQVDAPSDYQRETWNLSNHEKMKAVPVLHGEGNRLFKLGRYEEASSKYQEAIICLRNLQTKEKPWEVQWLKLEKMINTLILNYCQCLLKKEEYYEVLEHTSDILRHHPGIVKAYYVRARAHAEVXNEAEAKADLQKVLELEPSMQKAVRRELRLLENRMAEKQEEERLRCRNMLSQGATQPPAEPPTEPPAQSSTEPPAEPPTAPSAELSAGPPAEPATEPPPSPGHSLQH [W278X], the Tm was determined as 33.2 °C and the “change of melting temperature, mutant” value was -10.9 °C.

As to MDAALLLNVEGVKKTILHGGTGELPNFITGSRVIFHFRTMKCDEERTVIDDSRQVGQPMHIIIGNMFKLEVWEILLTSMRVHEVAEFWCDTIHTGVYPILSRSLRQMAQGKDPTEWHVHTCGLANMFAYHTLGYEDLDELQKEPQPLVFVIELLQVDAPSDYQRETWNLSNHEKMKAVPVLHGEGNRLFKLGRYEEASSKYQEAIICLRNLQTKEKPWEVQWLKLEKMINTLILNYCQCLLKKEEYYEVLEHTSDILRHHPGIVKAYYVRARAHAEVWNEAEAKADLQKVLELEPSMQKAVLRELRLLENRMAEKQEEERLRCRNMLSQGATQPPAEPPTEPPAQSSTEPPAEPPTAPSAELSAGPPAEPATEPPPSPGHSLQH [R302L], the midpoint of thermal melting (Tm) is 43.2 °C and the “change of melting temperature, mutant” value was -0.9 °C.

For the variant MDAALLLNVEGVKKTILHGGTGELPNFITGSRVIFHFRTMKCDEERTVIDDSRQVGQPMHIIIGNMFKLEVWEILLTSMRVHEVAEFWCDTIHTGVYPILSRSLRQMAQGKDPTEWHVHTCGLANMFAYHTLGYEDLDELQKEPQPLVFVIELLQVDAPSDYQRETWNLSNHEKMKAVPVLHGEGNRLFKLGRYEEASSKYQEAINCLRNLQTKEKPWEVQWLKLEKMINTLILNYCQCLLKKEEYYEVLEHTSDILRHHPGIVKAYYVRARAHAEVWNEAEAKADLQKVLELEPSMQKAVRRELRLLENRMAEKQEEERLRCRNMLSQGATQPPAEPPTEPPAQSSTEPPAEPPTAPSAELSAGPPAEPATEPPPSPGHSLQH [I206N], the Tm was 41.4 °C and the “change of melting temperature, mutant” value was -2.7 °C.

MDAALLLNVEGVKKTILHGGTGELPNFITGSRVIFHFRTMKCDEERTVIDDSRQVGQPMHIIIGNMFKLEVWEILLTSMRVHEVAEFWCDTIHTGVYPILSRSLRQMAQGKDPTEWHVHTCGLANMFAYHTLGYEDLDELQKEPQPLVFVIELLQVDAPSDYQRETWNLSNHEKMKAVPVLHGEGNRLFKLGRYEEASSKYQEAIICLRNLQTKEKPWEVQWLKLEKMINTLILNYCQCLLKKEEYYEVLEHTSDILRHHPSIVKAYYVRARAHAEVWNEAEAKADLQKVLELEPSMQKAVRRELRLLENRMAEKQEEERLRCRNMLSQGATQPPAEPPTEPPAQSSTEPPAEPPTAPSAELSAGPPAEPATEPPPSPGHSLQH [G262S]: the Tm turned out to be 40.1 °C and the “change of melting temperature, mutant” value was -4 °C.

Take MDAALLLNVEGVKKTILHGGTGELPNFITGSRVIFHFRTMKCDEERTVIDDSRQVGQPMHIIIGNMFKLEVWEILLTSMRVHEVAEFWCDTIHTGVYPILSRSLRQMAQGKDPTEWHVHTCGLANMFAYHTLGYEDLDELQKEPQPLVFVIELLQVDAPSDYQRETWNLSNHEKMKAVPVLHGEGNRLFKLGRYEEASSKYQEAIICLRNLQTKEKPWEVQWLKLEKMINTLILNYCQRLLKKEEYYEVLEHTSDILRHHPGIVKAYYVRARAHAEVWNEAEAKADLQKVLELEPSMQKAVRRELRLLENRMAEKQEEERLRCRNMLSQGATQPPAEPPTEPPAQSSTEPPAEPPTAPSAELSAGPPAEPATEPPPSPGHSLQH [C239R]: the Tm came out at 46.7 °C and the “change of melting temperature, mutant” value was determined as 2.6 °C.

Take MDAALLLNVEGVKKTILHGGTGELPNFITGSRVIFHFRTMKCDEERTVIDDSRQVGQPMHIIIGNMFKLEVWEILLTSMRVHEVAEFWCDTIHTGVYPILSRSLRQMAQGKDPIEWHVHTCGLANMFAYHTLGYEDLDELQKEPQPLVFVIELLQVDAPSDYQRETWNLSNHEKMKAVPVLHGEGNRLFKLGRYEEASSKYQEAIICLRNLQTKEKPWEVQWLKLEKMINTLILNYCQCLLKKEEYYEVLEHTSDILRHHPGIVKAYYVRARAHAEVWNEAEAKADLQKVLELEPSMQKAVRRELRLLENRMAEKQEEERLRCRNMLSQGATQPPAEPPTEPPAQSSTEPPAEPPTAPSAELSAGPPAEPATEPPPSPGHSLQH [T114I]: the Tm was determined as 34.8 °C and the “change of melting temperature, mutant” value is -9.3 °C.
